Measurements taken from patent publication US20160130324A1 (SHIRE HUMAN GENETIC THERAPIES, published 2016).

T1: rhC1s (human, UniProt P09871 16-688)
T1 construct: Enzyme of the colorimetric peptide cleavage assay; Human is read from the printed label 'rhC1s'
T1 sequence (looked up): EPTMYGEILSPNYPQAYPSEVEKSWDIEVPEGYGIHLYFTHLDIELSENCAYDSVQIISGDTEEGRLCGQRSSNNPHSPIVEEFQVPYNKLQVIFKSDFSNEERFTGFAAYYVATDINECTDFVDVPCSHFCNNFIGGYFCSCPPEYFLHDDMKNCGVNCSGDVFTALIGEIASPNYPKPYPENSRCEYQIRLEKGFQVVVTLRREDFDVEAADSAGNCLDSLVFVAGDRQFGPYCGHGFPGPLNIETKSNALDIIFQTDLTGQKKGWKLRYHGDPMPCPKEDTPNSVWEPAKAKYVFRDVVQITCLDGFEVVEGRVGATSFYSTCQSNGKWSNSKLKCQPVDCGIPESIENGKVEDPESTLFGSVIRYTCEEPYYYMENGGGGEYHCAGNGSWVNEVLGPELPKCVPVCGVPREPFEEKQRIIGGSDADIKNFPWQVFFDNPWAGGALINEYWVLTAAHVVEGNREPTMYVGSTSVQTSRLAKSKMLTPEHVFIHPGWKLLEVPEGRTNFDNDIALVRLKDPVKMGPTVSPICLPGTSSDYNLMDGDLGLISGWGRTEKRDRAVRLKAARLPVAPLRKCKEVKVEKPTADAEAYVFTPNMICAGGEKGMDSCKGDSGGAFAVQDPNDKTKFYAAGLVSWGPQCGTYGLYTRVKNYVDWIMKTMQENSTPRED

T2: biotin-C1s
T2 construct: Used in the functional ELISA that measures the C1s/C1-INH complex
T2 sequence (P09871 16-688, species assumed, looked up): T1 sequence (looked up)

B1: R&D rhC1inh (other, human, UniProt P05155 23-500, looked up)
single chain: NPNATSSSSQDPESLQDRGEGKVATTVISKMLFVEPILEVSSLPTTNSTTNSATKITANTTDEPTTQPTTEPTTQPTIQPTQPTTQLPTDSPTQPTTGSFCPGPVTLCSDLESHSTEAVLGDALVDFSLKLYHAFSAMKKVETNMAFSPFSIASLLTQVLLGAGENTKTNLESILSYPKDFTCVHQALKGFTTKGVTSVSQIFHSPDLAIRDTFVNASRTLYSSSPRVLSNNSDANLELINTWVAKNTNNKISRLLDSLPSDTRLVLLNAIYLSAKWKTTFDPKKTRMEPFHFKNSVIKVPMMNSKKYPVAHFIDQTLKAKVGQLQLSHNLSLVILVPQNLKHRLEDMEQALSPSVFKAIMEKLEMSKFQPTLLTLPRIKVTTSQDMLSIMEKLEFFDFSYDLNLCGLTEDPDLQVSAMQHQTVLELTETGVEAAAASAISVARTLLVFEVQQPFLFVLWDQQHKFPVFMGRVYDPRA
notes: commercial R&D Systems preparation; also called hSerpin G1 (R&D Systems)
B2: plasma-derived C1-INH (other)
chain: B1 single chain
notes: Purified from plasma and glycosylated
B3: recombinant C1-INH (other, UniProt P05155 23-500, looked up)
chain: B1 single chain

How the values were obtained:
rhC1s [1] = target: T1, rhC1s; test: inhibition of rhC1s cleavage of a colorimetric peptide substrate, average OD; concentrations from gel estimated sizes; C is the midpoint of the 4-parameter fit [panel B]
rhC1s [2] = target: T1, rhC1s; test: inhibition of rhC1s cleavage of a colorimetric peptide substrate, average OD; concentrations from mass spec sizes; C is the midpoint of the 4-parameter fit [panel A]
rhC1s [3] = target: T1, rhC1s; test: inhibition of C1s cleavage of a colorimetric peptide substrate, mean OD value; C is the midpoint of the 4-parameter fit
biotin-C1s = target: T2, biotin-C1s; test: functional ELISA of the C1s/C1-INH complex: diluted C1-INH with biotin-C1s, captured on a streptavidin plate, anti-C1-INH-HRP, OD450; C is the midpoint of the 4-parameter fit
Protocol: This method was used to test the effector dead Fc constructs made for PK studies FIG. 8. The ELISA protocol was as follows: [0334] 60 μL diluted C1-INH+12 μL biotin-C1s [0335] 30 min incubation at RT [0336] Transfer 50 μL of complexes to streptavidin coated plate [0337] 10 min incubation at RT, wash 5× [0338] Add 50 μL of anti-C1-INH-HRP [0339] 60 min incubation at RT, wash 5× [0340] Add 100 μL of TMB substrate [0341] 15 minute incubation at RT [0342] […] Read at OD450

| Binder | IC50 (rhC1s [1]) | IC50 (rhC1s [2]) | IC50 (rhC1s [3]) | EC50 (biotin-C1s) |
| --- | --- | --- | --- | --- |
| B1 | 1.76 nM | 1.76 nM | – | – |
| B2 | 2.01 nM | 2.01 nM | 1.83 nM | 4.58 nM |
| B3 | – | – | 1.14 nM | – |
